Laboratory results from publication PMC6659671.

Assays:
[1] = molecular target: HisBamA G781C (E. coli) (UniProt P0A940); test: cross-linking
[2] = molecular target: HisBamA G781C (E. coli) (UniProt P0A940); test: cross-linking; kinetics of intermolecular disulfide-bond formation in intact cells; 0.2 mM 4-DPS on ice for 0, 2, 5, 15, 30, 60 and 90 min; quantitated from αStrepII immunoblots
[3] = molecular target: HisBamA S425C (E. coli) (UniProt P0A940); test: cross-linking

| Substance | percent disulfide-bond formation [1] | K (rate constant of disulfide-bond formation, single-step fit) [2] | half-time of disulfide-bond formation [2] | percent disulfide-bond formation [3] |
| --- | --- | --- | --- | --- |
| MBP−76EspP A1043C (from UniProt Q7BSW5) | 42% | 0.038 min⁻¹ | 18.2 min | – |
| MBP−76EspP Y1298C (from UniProt Q7BSW5) | – | – | – | 28% |
